Laboratory results taken from paper PMC3947452.

Target: Flag-tagged PKMζ (protein kinase M ζ) (human) (UniProt Q05513)
Assay: co-IP

Chain of UniProt Q05513 (Q05513 184-592): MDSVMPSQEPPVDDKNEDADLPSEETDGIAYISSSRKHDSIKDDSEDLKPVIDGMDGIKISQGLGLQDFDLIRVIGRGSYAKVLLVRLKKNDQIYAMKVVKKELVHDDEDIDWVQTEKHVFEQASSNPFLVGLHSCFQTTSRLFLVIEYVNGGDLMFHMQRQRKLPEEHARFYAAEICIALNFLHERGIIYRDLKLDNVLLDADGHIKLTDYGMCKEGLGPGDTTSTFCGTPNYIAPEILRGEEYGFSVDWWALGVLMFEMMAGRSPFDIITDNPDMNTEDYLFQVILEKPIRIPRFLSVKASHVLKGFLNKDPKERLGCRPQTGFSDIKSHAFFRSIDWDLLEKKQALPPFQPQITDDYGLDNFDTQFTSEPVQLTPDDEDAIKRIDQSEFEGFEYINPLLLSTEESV

IC50: 60 nM
Substance: synthetic biotin-labeled peptide containing the binding motif (KIBRA position 948-978)
